{"source": "paper PMC10866363", "origin": "cited, not measured here", "target": "Trigger factor (Escherichia coli) (UniProt P0A850)", "data": [{"substance": "Trigger factor (from UniProt P0A850)", "values": [{"measurement": "Kd", "value": 2000, "unit": "nM"}]}]}
